From the nanobody polyreactivity screen of Harvey et al. (2022)

Assay: yeast display, Sf9 membrane polyspecificity reagent, FACS + sequencing; frameworks hold sequencing errors
Outline: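 Sorting gates, low and high (top ~1%), were placed on anti-HA fluorescence to track expression and on streptavidin fluorescence to track reagent binding. A clone's polyreactivity label is taken from the gate it came out of. The reagent was 10% biotinylated, detergent-solubilized Sf9 membrane, applied for 1 hour at 4 °C to galactose-induced yeast display cells.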

Sequence | polyreactivity (PSR sort gate)
QVQLVESGGVLVQAGGSLRLSCAASGSTSDCYDMGWYRQAPGKEWELVAAISTGDGITYYADSVKGRFTISRDNAKNTVYLHMNRLKPEDTAVYYCAAEVELSGGSDYWGQGTQVTVSS | low polyreactivity
QVQLVESGGVLVQAGGSLRLSCASSGSIFYIYGMGWSRQAPWKERELVARISSGDRTNYADSVKGRFTISRDNAKNRVYLQMNSRNPDDTAVYYCAAKKRKIAGVGGDYWGQGTQVTVSS | high polyreactivity
QVQLVESGGWLDQAGGSLRLSCAASGRTLGYYAMGWYRQAPGKERELVASIRYSGGSTYADSVKGRFTISRDNAKNTVYLQMNSLKPEDTAVYYCATGDSFRCYSALSRYDYWGQGTQVTVSS | high polyreactivity
QVQLVESGGWLVQAGGSLRLSCDASGITFYRNAVGWYRPAPGKERELVADITVSGGSTYYADSVKGRFTISRDNAKNTVYLQMNSLKPEDTAVYYCNAGLYQYDVWAYYIRYDYWGQGTQVTVSS | low polyreactivity
QVQLVESGLCLVQAGGSLRLSCAASGRIFRSYLMGWYRPAPGKERELVAAISNSGTRTYYADSVKGRFTISRDNAKNTVYLQKNSLKPEDTAVYYFITRRGRGSVDYDYWGQGSQVTVSS | high polyreactivity
QVQLVESGLGLVQAGGSLRLSCAASGSTFSNNAMGWYRQAPGKERELVASITRSGGSTYYADTVKGRFTISRDNAKNTVYLQMNSLKPEDTAVYYCNADGYYDYDYGEWGQGTQVTGSS | low polyreactivity
QVQLVESGLGLVQAGGSLRLSCAHSGSTLVYNDMRWYRQAPGKEREFVAAIRSNDGSTYYADSVNGRFTISRDNAKNTVYLQMNSLTPEDTAVYYCAATFSSAFAYYYWGQGTQVTVSS | low polyreactivity
QVQLVESGLGLVQAGGSLSLSCAASGIIFSWNSMGWYIEAPGKERELVAAITRGGGGTTYYADYVKGRFTISRDKAKNTVYLQMNSLKPEDTAVYYCAKAYEVRFEVDYCGQGTQVTVSS | low polyreactivity
QVQLVESGRGLDQAGGSLRLNCAASGSIFVRYAMGLNRQAPGKERELVAGITNSGGSTYYADSVKGRFTISRDNAMNTVYLQMNSLKPEDTAVYYCAADAGGWWYKYYYWGQGTQVTVSS | high polyreactivity
QVQLVESGRGLFKAGGSLRLSCAASGSIFDGNAMGWYRQAPGKERELVATMSWCGGSTYYADSVKGRFTISRDNSKNNVYLQMYSVNPEETAVYHCGKTPYRRYRYGGYTYSTYDYWGQGTQVTVSS | low polyreactivity
QVQLVESGRGLFQAGGSLRLSCAASGSTFYTNAMVWYRQAPGKEWELVATITSSGGITSYADSVKGRFTISRDNAKITVYLHMNSLKPEDTAVYYCAADFGASYDTHEYGYWGQGTQVTVSS | low polyreactivity
QVQLVESGRGLLQAGGSLRLSCAASGRIFTRYAMGWYRQAPGKERELVAAISSGGGNTYYADSVKGRFTISRYNAKNTVYLQMNILKPEDTAVYYCAALRSWRKTGGAQRYWYDYWGQGTQVTVLS | high polyreactivity
QVQLVESGRGLVLAGGSLRLSCAASGFIFLEYAMGWYRQAPGKERELVAASSSRGTRTYYADSVKGRFTISRDNAKNTGYLQMNSLKPEDTAVYYCAARSIAPTNLKTYLLDMDYWGQGTQVTVSS | high polyreactivity
QVQLVESGRGLVQAGGRLRLSCAASGFTFNRYTMGGYRQAPGKEREFVASITRSGGSTYYADSVKGRFTISRDNAKNTVYLQMNSLTPEDTAVYYCAPVYQYSSRYDHWGQGTQVTVSS | high polyreactivity
QVQLVESGRGLVQAGGSHRLSCAASGSTITYYTMGWYREAPGKERELVAAISGSGGRTYYADSVKGRFTISRDNAKNTVYLQMNSLKPEDTAVYYCAAVYQLSRYDYWGQGTQVTVSS | high polyreactivity
QVQLVESGRGLVQAGGSLRISCAASGRIFKNYAMGWYRQAPGKERELVADITWSDSDTSYADSVKGRFTITRDNAKNTVYLQMNCLKPEDTAVYYCAAETFDYADYIANGSAEYDYWGQGSQVTVSS | high polyreactivity
QVQLVESGRGLVQAGGSLRLSCAACGSIFVYNDRGCYRQAPGKERELVAAISASGGRTYSADSVKGRFTISRDNAKNTVYLQMNSLKPEDTAVYYCAKDWLWGPEYDYWGQGTQVTVSS | low polyreactivity
QVQLVESGRGLVQAGGSLRLSCAASGFIFLKFAKGWYRQAPGKERELVARITSTGGSTYYADSVKGRFTISRDNAKNTVYLQMNSLKPEDTAVYYCARDTVPSSDPWYYAWGGFEFDYWGQGTQVTVSS | low polyreactivity
QVQLVESGRGLVQAGGSLRLSCAASGFIFNLYAMGWYRQAPGKERELVAAISGGGSTYYAYSVKGRFTISRDNAKNTVYLQMISLKPEDNAVYYCAKKGGHRTYGYDSWGQGTQVTVSS | low polyreactivity
QVQLVESGRGLVQAGGSLRLSCAASGFIFSNAIGWYRQAPGKERELVAAISRSGGSTYYADSVKGRVTISRDNAKNTVSLQMNSLKPEDTAVEYCAARSYPRSPVRYDYWGQGTQVTVSS | high polyreactivity
QVQLVESGRGLVQAGGSLRLSCAASGFTFPNYAMGWYRQAPGKERELVASITRRAGSTNYADSVKGRFTISRDNAKNTVYLQMNSLKPEDTAVYYCNTVVLRYLYNYWGQGTQVTVSS | high polyreactivity
QVQLVESGRGLVQAGGSLRLSCAASGFTFVYYAMGWYRQAPGKERELVATISGNGGRTYYADSVKGRFTISRDNAKNTVYLQMNSLKPEDTAVYYCAALLYIRSVGYDYWGQGTQVTVSS | low polyreactivity

Sequence | polyreactivity (PSR sort gate)
QVQLVESGRGLVQAGGSLRLSCAASGFTFYRYAMGWYRQAPGKERELVAAISWSGGSTYYADSVKGRFTISRDNAKNTVYLQMNSLKPEDTAVYYCAANRRFVGTGSTYYYWGQGTHVTVSS | high polyreactivity
QVQLVESGRGLVQAGGSLRLSCAASGGSIPYYAMGWYRQAPGKERELVAAINYSGGSTYYADSVKGRFTISRDNAKNSVYLQMNSLKPEDTAVDYCAARHRYHRGYGYWGQGTQVTLSS | high polyreactivity
QVQLVESGRGLVQAGGSLRLSCAASGGTFRTYAMAWYRQAPGKERELVAAISVSGGRTYYADSVKGRFTISRDNAKNTVYLQMNSLKPEDTAVYYCAAYWHGFFKYWEMGYWGQGTQVTVSS | high polyreactivity
QVQLVESGRGLVQAGGSLRLSCAASGIFTRYAMGWYRQAPGKERELVAAISRGGGSTYYADSVKGSFTISRDNAKNTVYLQMNSLKPEDTAVYYCAADNSPRPYDYWGQGTQVTVSS | high polyreactivity
QVQLVESGRGLVQAGGSLRLSCAASGIIFTRYAMGWYRQAPGKERDLVAGISYSGSSTYYADSVKGRFTISRDNAKNTVYLQMNSLKPEDTAVYYCAAEFVTYYSSSKRAYYYWGQGTQVTVSS | high polyreactivity
QVQLVESGRGLVQAGGSLRLSCAASGLNFYDNMGWYRQAPGKERDLVAAISSSGGSTSYADSVKGRFTISRDNAKNTVYLQMNSLNPEDTAVYYCAAEWYPYPWGYGYWGQGTQVTVSS | low polyreactivity
QVQLVESGRGLVQAGGSLRLSCAASGLTFTPYAMGWYRQAPGKERELVAAITSGGRTYYADSVKGRFTSSRDNAKNTVYLQMNSLKPEDTAVYYCNADPEYSWWYYGLDYWGQGTQVTVSW | high polyreactivity
QVQLVESGRGLVQAGGSLRLSCAASGRIFDHYAMGWYRQAPGKERELVAAITWSGANTYYADSVKGRFTISRDNAKNTVYLQMNSLKPEDTAVYYCAAYNGAHSHFGYWGQGTQVTVSS | low polyreactivity
QVQLVESGRGLVQAGGSLRLSCAASGRIFGVYAMGWDRQAPGKERELVAAISGSTTRTYYADSVKGRFTISRDTAKNTVYLQMNSLKPEDTAVYYCAARSYTPSYKMDYWGQGTQVTVSS | high polyreactivity
QVQLVESGRGLVQAGGSLRLSCAASGRIFKAYAMGWYRQATGKERELVAAITRGGRTKYADSVKGRFTISRDNAKNTVYLQMNSLKPEDTAVYYCAAELPGGYLVDYDYWGHGTQVTVSS | high polyreactivity
QVQLVESGRGLVQAGGSLRLSCAASGRIGKYAMGWYRQAPGKERELVATISSTGTTNYADSVKGRFTISRDNAKNTVYLQMNSLKPDDTAVYYCAAVRHKEYDYWGQGTQVTVSS | high polyreactivity
QVQLVESGRGLVQAGGSLRLSCAASGRISVFNAMGWYRQAPGKERELVAAISWSGGSTYYADSVKGRFTISRDNAKNTVYLQMNSLKPEDTAVYYCAARGHYQYYWGQGTQVTVSS | low polyreactivity
QVQLVESGRGLVQAGGSLRLSCAASGRTFDFNAMGWYRQAPGKERELVAAISSDSDTYYADSVKGRFTISRDNAKNTVFLQMNSLKPEDTAVYYCAAEHQYPYGWYYYWGQGTQVTVSS | high polyreactivity
QVQLVESGRGLVQAGGSLRLSCAASGRTFYGYARGCYRQAPGKERELVARISSGGGTYYADSVKGRFIISRDNAKYTVYLQMNSLKPEDTAVYYCNAEVYRWSGSYTGWDSWHDDWGQGTQVTVSS | low polyreactivity
QVQLVESGRGLVQAGGSLRLSCAASGRTFYYYTMGWYRQAPGKERELVAAISYSGGSTSYADSVKGRFTISRYNAKNTVYLQMNRLKPEDTAVYYCNAPYKYYTQRRYHYDYCGQGTQVTVSS | high polyreactivity
QVQLVESGRGLVQAGGSLRLSCAASGRTLSQYAMGWYRQAPGKERELVAAITRSGGSTYYADSVTGRFTISRDISKNTVYLQMNSLKRDDTAVYYCNITLYTTYDYWGQGTQVTVSS | low polyreactivity
QVQLVESGRGLVQAGGSLRLSCAASGRTVTNNVLGWYRQAPGKEREFVASISSGGGSTYYADSVKGRFTISRDNANNTVYVQMNSLKPEDTAVYYCAAGYWWRYALYGYWGQGTQVTVSS | low polyreactivity
QVQLVESGRGLVQAGGSLRLSCAASGSIFKYYAMGWYRQAPGKERELVAAITSGGSTSYADSVKGRFTISRDNAKNTVYLQMNSLKPEDTAVYYCAAELRSWRSYGSVWRWYYYWGQGTQVTVSS | high polyreactivity
QVQLVESGRGLVQAGGSLRLSCAASGSIFPTYALGCYRQAPGKERELVAAISSGENTYYADSVKGRFTISRDNAKNTVSLQMNSLKPEDTAVYFCAAADNYGIRDLYASDGTQNYYWGQGTQVTVSS | low polyreactivity
QVQLVESGRGLVQAGGSLRLSCAASGSIFYDNAMGWYRQAPGKDRELVAAISYSGDSTYYADSVKGRFTISHDNAKNTVYLQMNSLKPEDTAVYYCAADYYGIYYSGTSEYWGQGTQVTVSS | low polyreactivity
QVQLVESGRGLVQAGGSLRLSCAASGSTFNINAMGWYRQAPGKERELVAAISWSGDITYYADSVKGRFTISRDNAKNTVYLQMNSLKPEDTAVYYCNTDDPGNYWYAEYDYWGQGTQVTVSS | low polyreactivity
